{
  "source": "patent US20030198598A1",
  "about": "“Polypeptide derivatives” (priority 1989, published 2003)",
  "key": {"LHRH-receptors": {"biological_target": "T1, LHRH-receptors (Rattus norvegicus, UniProt P30969)", "T1 construct": "LHRH receptor positive anterior pituitary membranes from male Sprague-Dawley rats; from tissue; host or cells: anterior pituitary membranes of male Sprague-Dawley rats", "T1 sequence (P30969 1-327)": "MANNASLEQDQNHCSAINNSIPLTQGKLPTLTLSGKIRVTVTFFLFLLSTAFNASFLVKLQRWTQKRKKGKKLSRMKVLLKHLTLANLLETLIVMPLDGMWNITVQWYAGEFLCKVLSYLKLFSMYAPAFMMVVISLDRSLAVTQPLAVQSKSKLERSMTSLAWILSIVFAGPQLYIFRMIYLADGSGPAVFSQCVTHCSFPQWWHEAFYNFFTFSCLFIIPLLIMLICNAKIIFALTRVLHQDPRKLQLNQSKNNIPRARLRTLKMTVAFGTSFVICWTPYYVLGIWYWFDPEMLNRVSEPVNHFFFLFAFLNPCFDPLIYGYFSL", "test": "Binding assay on LHRH receptor positive anterior pituitary membranes", "parameters": "species or system male Sprague-Dawley rats", "conditions": "labelled with 0.4 mCi 111InCl3, 10^-6 M (DAla6)LHRH for non-specific binding"}, "[1]": {"tested_on": "EGF receptor positive tumour (MDA 231, MDA 468 or A 431 tumors)", "parameters": "species or system nude mice", "conditions": "mouse, in vivo, iv", "procedure": "Biodistribution of radioactivity may be determined either with standard imaging techniques in nude mice weighing 20+5 g and bearing an EGF receptor positive tumour (MDA 231, MDA 468 or A 431 tumors) or through serial sacrifice of a number of such animals and determination of the organ radioactivity. Compound of Example 4 is administered i.v. to the animals at a dosage corresponding to 90-10 μCi and the radioactivity is assessed 5 min, 10 min, 15 min, 30 min, 60 min, 20 hrs and 48 hrs."}, "EGF receptor [2]": {"biological_target": "T2, EGF receptor (Homo sapiens, UniProt P00533)", "T2 construct": "Membranes are isolated by differential centrifugation; from tissue; host or cells: EGF receptor positive human tumor (membranes)", "test": "Similar binding assay with the 111In labelled compound as test substance, non-specific binding with 10^-7 M EGF", "conditions": "compound of Example 3 labelled with 0.2 mCi 111InCl3; controls with 10^-7 M EGF", "procedure": "An EGF receptor positive human tumor is removed and immediately stored at −70° C. During the subsequent isolation procedure this material is kept at 0 to 4° C. The tumor tissue is dissected into small cubes prior to homogenisation in 5 parts of Buffer A (20 mM HEPES, 0.1 mM EDTA and 250 mM sucrose, pH 7.4). Membranes are isolated by differential centrifugation. The material is then diluted in the incubation buffer containing 30 mM HEPES, pH 7.4, 1 mg/ml BSA and 1 mM benzamidine. […] After mixing the icecold test solution on a vortex the tubes (polypropylene) are transfered to a waterbath and incubated for 30 min at 37° C. The reaction is stopped by addition of icecold Hank's or Tris buffer (4 ml). The Tris buffer contains 10 mM Tris in 0.9% sodium chloride solution and is adjusted to pH 7.4. Routinely, filtration buffers contain 1% BSA (Fraction V) to suppress non-specific binding to the glass fiber filters (type A/E) that have been soaked in the filtration buffer a few minutes prior to use. The tubes are rinsed with 4 ml of the filtration buffer and the rinsing fluid is put over the respective filters. A third wash of the filters is followed by drying and the measurement of the filter-bound radioactivity in a γ-counter. The washing of the filters takes approximately 10 sec. […]"}, "EGF receptor [3]": {"biological_target": "T2, EGF receptor", "test": "Inhibition of specifically bound [125I]-EGF on membranes of an EGF receptor positive human tumor", "type": "binding", "conditions": "30 min at 37° C", "procedure": "An EGF receptor positive human tumor is removed and immediately stored at −70° C. During the subsequent isolation procedure this material is kept at 0 to 4° C. The tumor tissue is dissected into small cubes prior to homogenisation in 5 parts of Buffer A (20 mM HEPES, 0.1 mM EDTA and 250 mM sucrose, pH 7.4). Membranes are isolated by differential centrifugation. The material is then diluted in the incubation buffer containing 30 mM HEPES, pH 7.4, 1 mg/ml BSA and 1 mM benzamidine. The test mixture (200 μl final volume) contains 100 000 cpm [^125I]-EGF, the tissue (5 to 25 μg protein/assay) and compound of Example 3 at a concentration of 10^−9 M. After mixing the icecold test solution on a vortex the tubes (polypropylene) are transfered to a waterbath and incubated for 30 min at 37° C. The reaction is stopped by addition of icecold Hank's or Tris buffer (4 ml). The Tris buffer contains 10 mM Tris in 0.9% sodium chloride solution and is adjusted to pH 7.4. Routinely, filtration buffers contain 1% BSA (Fraction V) to suppress non-specific binding to the glass fiber filters (type A/E) that have been soaked in the filtration buffer a few minutes prior to use. The tubes are rinsed with 4 ml of the filtration buffer and the rinsing fluid is put over the respective filters. A third wash of the filters is followed by drying and the measurement of the filter-bound radioactivity in a γ-counter. […]"}},
  "note": "Where a SMILES comes first, the peptide text is derived from it. [ ]: non-standard residue; d: D form. The star is where a group is joined. DTPA = O=C(O)CN(CCN(CC(=O)O)CC(=O)O)CCN(CC(=O)O)CC(=O)*; dPhe(4-Cl) = N[C@H](Cc1ccc(Cl)cc1)C(=O)O",
  "data": [
    {"compound": "CC(=O)N[C@H](Cc1ccc(Cl)cc1)C(=O)N[C@H](Cc1ccc(Cl)cc1)C(=O)N[C@H](Cc1c[nH]c2ccccc12)C(=O)N[C@@H](CO)C(=O)N[C@@H](Cc1ccc(O)cc1)C(=O)N[C@H](CCCCNC(=O)CN(CCN(CCN(CC(=O)O)CC(=O)O)CC(=O)O)CC(=O)O)C(=O)N[C@@H](CC(C)C)C(=O)N[C@@H](CCCNC(=N)N)C(=O)N1CCC[C@H]1C(=O)N[C@H](C)C(N)=O", "note": "[^111In labelled compound of Example 8, metal not drawn] (Ac-[dPhe(4-Cl)][dPhe(4-Cl)][dW]SY[dK](DTPA)LRP[dA]-NH2)", "values": [
      {"measurement": "IC50", "setting": "LHRH-receptors", "value": 1.1, "unit": "nM"}
    ]},
    {"compound": "^111In Labeled DTPA-β-Ala-mEGF [Example 4]", "values": [
      {"measurement": "Localisation of radioactivity 5 minutes after injection", "setting": "[1]", "value": "radioactivity is detected in the liver, kidneys, urinary bladder and in the tumor site"},
      {"measurement": "Localisation of radioactivity 60 min after injection", "setting": "[1]", "value": "Radioactivity is increasing and is localized on the tumor site"},
      {"measurement": "IC50", "setting": "EGF receptor [2]", "value": 3, "unit": "nM"}
    ]},
    {"compound": "DTPA-β-Ala-mEGF [Example 3]", "values": [
      {"measurement": "IC50", "setting": "EGF receptor [3]", "value": 1.3, "unit": "nM"}
    ]}
  ]
}
